Where two headings read alike, the source gives them in different places.
Tests used:
VRC01-resistant viruses [1] = test: cell-based or functional assay
VRC01-resistant viruses [2] = biological target: VRC01-resistant viruses
[3] = biological target: gp120 of X2088 (HIV-1 strain X2088.c9)
6631.V3.C10 (HIV-1) [4] = biological target: 6631.V3.C10 (HIV-1)
VRC01-resistant viruses [5] = biological target: VRC01-resistant viruses; remark: listed apart in the source
6631.V3.C10 (HIV-1) [6] = biological target: 6631.V3.C10 (HIV-1); remark: listed apart in the source
T250-4 (HIV-1) [7] = biological target: T250-4 (HIV-1)
[8] = biological target: gp120 of X2088 (HIV-1 strain X2088.c9); remark: listed apart in the source
T250-4 (HIV-1) [9] = biological target: T250-4 (HIV-1); remark: listed apart in the source
VRC01-resistant viruses [10] = biological target: VRC01-resistant viruses; remark: listed apart in the source
VRC01-resistant viruses [11] = biological target: VRC01-resistant viruses; remark: listed apart in the source
T250-4 (HIV-1) [12] = biological target: T250-4 (HIV-1); remark: listed apart in the source
[13] = biological target: gp120 of X2088 (HIV-1 strain X2088.c9); remark: listed apart in the source
6631.V3.C10 (HIV-1) [14] = biological target: 6631.V3.C10 (HIV-1); remark: listed apart in the source

B1: N6 Y54GHC (antibody, V domains shown)
VH: RAHLVQSGTAMKKPGASVRVSCQTSGYTFTAHILFWFRQAPGRGLEWVGWIKPQGGAVNFGGGFRDRVTLTRDVYREIAYMDIRGLKPDDTAVYYCARDRSYGDSSWALDAWGQGTTVVVSA
VL: YIHVTQSPSSLSVSIGDRVTINCQTSQGVGSDLHWYQHKPGRAPKLLIHHTSSVEDGVPSRFSGSGFHTSFNLTISDLQADDIATYYCQVLQFFGRGSRLHIK
fold decrease in neutralization (IC50 of antibody mutant/IC50 of antibody WT) (VRC01-resistant viruses [1]): 32 fold
neutralisation median IC50 (VRC01-resistant viruses [2]): 0.562 µg/mL
neutralisation IC50 [3]: 0.728 µg/mL
neutralisation IC50 (6631.V3.C10 (HIV-1) [4]): 0.396 µg/mL

B2: N6 GGG60-62ARPHC (antibody, V domains shown)
VH: RAHLVQSGTAMKKPGASVRVSCQTSGYTFTAHILFWFRQAPGRGLEWVGWIKPQYGAVNFARPFRDRVTLTRDVYREIAYMDIRGLKPDDTAVYYCARDRSYGDSSWALDAWGQGTTVVVSA
VL: YIHVTQSPSSLSVSIGDRVTINCQTSQGVGSDLHWYQHKPGRAPKLLIHHTSSVEDGVPSRFSGSGFHTSFNLTISDLQADDIATYYCQVLQFFGRGSRLHIK
fold decrease in neutralization (IC50 of antibody mutant/IC50 of antibody WT) (VRC01-resistant viruses [1]): 14 fold
neutralisation median IC50 (VRC01-resistant viruses [2]): 0.248 µg/mL
neutralisation IC50 [3]: 0.15 µg/mL

B3: N6 VRC27CDRH3 (antibody, V domains shown)
VH: RAHLVQSGTAMKKPGASVRVSCQTSGYTFTAHILFWFRQAPGRGLEWVGWIKPQYGAVNFGGGFRDRVTLTRDVYREIAYMDIRGLKPDDTAVYYCARDRLYDGSSWRLDPWGQGTTVVVSA
VL: YIHVTQSPSSLSVSIGDRVTINCQTSQGVGSDLHWYQHKPGRAPKLLIHHTSSVEDGVPSRFSGSGFHTSFNLTISDLQADDIATYYCQVLQFFGRGSRLHIK
fold decrease in neutralization (IC50 of antibody mutant/IC50 of antibody WT) (VRC01-resistant viruses [1]): 10 fold
neutralisation median IC50 (VRC01-resistant viruses [5]): 0.167 µg/mL
neutralisation IC50 (6631.V3.C10 (HIV-1) [6]): 0.268 µg/mL

B4: N6 VRC27CDRH2 (antibody, V domains shown)
VH: RAHLVQSGTAMKKPGASVRVSCQTSGYTFTAHILFWFRQAPGRGLEWVGWIKPKFGAVNYAHSFQGRVTLTRDVYREIAYMDIRGLKPDDTAVYYCARDRSYGDSSWALDAWGQGTTVVVSA
VL: YIHVTQSPSSLSVSIGDRVTINCQTSQGVGSDLHWYQHKPGRAPKLLIHHTSSVEDGVPSRFSGSGFHTSFNLTISDLQADDIATYYCQVLQFFGRGSRLHIK
fold decrease in neutralization (IC50 of antibody mutant/IC50 of antibody WT) (VRC01-resistant viruses [1]): 78 fold
neutralisation median IC50 (VRC01-resistant viruses [5]): 1.37 µg/mL
neutralisation IC50 (T250-4 (HIV-1) [7]): 1.57 µg/mL
neutralisation IC50 (6631.V3.C10 (HIV-1) [6]): 1.17 µg/mL

B5: N6 N17FRH1 (antibody, V domains shown)
VH: RAHLVQSGTAVKRPGASVRVSCETSGYTFTAHILFWFRQAPGRGLEWVGWIKPQYGAVNFGGGFRDRVTLTRDVYREIAYMDIRGLKPDDTAVYYCARDRSYGDSSWALDAWGQGTTVVVSA
VL: YIHVTQSPSSLSVSIGDRVTINCQTSQGVGSDLHWYQHKPGRAPKLLIHHTSSVEDGVPSRFSGSGFHTSFNLTISDLQADDIATYYCQVLQFFGRGSRLHIK
fold decrease in potency (IC50 of antibody mutant/IC50 of antibody WT) (VRC01-resistant viruses [1]): 5 fold
neutralisation fold change (IC50 mutant/IC50 WT) (VRC01-resistant viruses [5]): 6 fold
neutralisation median IC50 (VRC01-resistant viruses [5]): 0.111 µg/mL

B6: N6 N17FRH3 (antibody, V domains shown)
VH: RAHLVQSGTAMKKPGASVRVSCQTSGYTFTAHILFWFRQAPGRGLEWVGWIKPQYGAVNFGGGFRDRVTLTRDIYRDTAYMDISGLRFDDTAVYYCARDRSYGDSSWALDAWGQGTTVVVSA
VL: YIHVTQSPSSLSVSIGDRVTINCQTSQGVGSDLHWYQHKPGRAPKLLIHHTSSVEDGVPSRFSGSGFHTSFNLTISDLQADDIATYYCQVLQFFGRGSRLHIK
fold decrease in potency (IC50 of antibody mutant/IC50 of antibody WT) (VRC01-resistant viruses [1]): 7 fold
neutralisation fold change (IC50 mutant/IC50 WT) (VRC01-resistant viruses [5]): 10 fold
neutralisation median IC50 (VRC01-resistant viruses [5]): 0.18 µg/mL
neutralisation IC50 [8]: 0.106 µg/mL

B7: N6 VRC07CDRH3 (antibody, V domains shown)
VH: RAHLVQSGTAMKKPGASVRVSCQTSGYTFTAHILFWFRQAPGRGLEWVGWIKPQYGAVNFGGGFRDRVTLTRDVYREIAYMDIRGLKPDDTAVYYCARGKYCTARDYYNWALDAWGQGTTVVVSA
VL: YIHVTQSPSSLSVSIGDRVTINCQTSQGVGSDLHWYQHKPGRAPKLLIHHTSSVEDGVPSRFSGSGFHTSFNLTISDLQADDIATYYCQVLQFFGRGSRLHIK
neutralisation median IC50 (VRC01-resistant viruses [2]): 48.2 µg/mL
neutralisation IC50 (T250-4 (HIV-1) [9]): > 50 µg/mL
neutralisation IC50 (6631.V3.C10 (HIV-1) [4]): > 50 µg/mL

B8: N6 VRC08CDRH3 (antibody, V domains shown)
VH: RAHLVQSGTAMKKPGASVRVSCQTSGYTFTAHILFWFRQAPGRGLEWVGWIKPQYGAVNFGGGFRDRVTLTRDVYREIAYMDIRGLKPDDTAVYYCARGRSCCGGRRHCNGADCFNWALDAWGQGTTVVVSA
VL: YIHVTQSPSSLSVSIGDRVTINCQTSQGVGSDLHWYQHKPGRAPKLLIHHTSSVEDGVPSRFSGSGFHTSFNLTISDLQADDIATYYCQVLQFFGRGSRLHIK
neutralisation median IC50 (VRC01-resistant viruses [2]): > 50 µg/mL
neutralisation IC50 (T250-4 (HIV-1) [9]): > 50 µg/mL
neutralisation IC50 [3]: 1.4 µg/mL

B9: VRC01 (antibody, V domains shown)
VH: QVQLVQSGGQMKKPGESMRISCRASGYEFIDCTLNWIRLAPGKRPEWMGWLKPRGGAVNYARPLQGRVTMTRDVYSDTAFLELRSLTVDDTAVYFCTRGKNCDYNWDFEHWGRGTPVIVSS
VL: EIVLTQSPGTLSLSPGETAIISCRTSQYGSLAWYQQRPGQAPRLVIYSGSTRAAGIPDRFSGSRWGPDYNLTISNLESGDFGVYYCQQYEFFGQGTKVQVDIKR
neutralisation IC50 (VRC01-resistant viruses [10]): > 50 µg/mL
neutralisation median IC50 (VRC01-resistant viruses [10]): > 50 µg/mL

B10: N6 VRC27FRH1 (antibody, V domains shown)
VH: SQRLVQSGPQVRKPGSSVRISCETSGYTFNAHILFWFRQAPGRGLEWVGWIKPQYGAVNFGGGFRDRVTLTRDVYREIAYMDIRGLKPDDTAVYYCARDRSYGDSSWALDAWGQGTTVVVSA
VL: YIHVTQSPSSLSVSIGDRVTINCQTSQGVGSDLHWYQHKPGRAPKLLIHHTSSVEDGVPSRFSGSGFHTSFNLTISDLQADDIATYYCQVLQFFGRGSRLHIK
neutralisation median IC50 (VRC01-resistant viruses [5]): 0.373 µg/mL
neutralisation IC50 [8]: 0.184 µg/mL
neutralisation IC50 (6631.V3.C10 (HIV-1) [6]): 0.561 µg/mL

B11: N6 VRC27FRH2 (antibody, V domains shown)
VH: RAHLVQSGTAMKKPGASVRVSCQTSGYTFTAHILFWFRQAPGRSFEWMGWIKPQYGAVNFGGGFRDRVTLTRDVYREIAYMDIRGLKPDDTAVYYCARDRSYGDSSWALDAWGQGTTVVVSA
VL: YIHVTQSPSSLSVSIGDRVTINCQTSQGVGSDLHWYQHKPGRAPKLLIHHTSSVEDGVPSRFSGSGFHTSFNLTISDLQADDIATYYCQVLQFFGRGSRLHIK
neutralisation median IC50 (VRC01-resistant viruses [5]): 0.195 µg/mL
neutralisation IC50 [8]: 0.143 µg/mL

B12: N6 VRC27FRH3 (antibody, V domains shown)
VH: RAHLVQSGTAMKKPGASVRVSCQTSGYTFTAHILFWFRQAPGRGLEWVGWIKPQYGAVNFGGGFRDRITLTRDIYRETAFLDLTGLRFDDTAVYYCARDRSYGDSSWALDAWGQGTTVVVSA
VL: YIHVTQSPSSLSVSIGDRVTINCQTSQGVGSDLHWYQHKPGRAPKLLIHHTSSVEDGVPSRFSGSGFHTSFNLTISDLQADDIATYYCQVLQFFGRGSRLHIK
neutralisation median IC50 (VRC01-resistant viruses [5]): 0.525 µg/mL
neutralisation IC50 [8]: 0.509 µg/mL
neutralisation IC50 (6631.V3.C10 (HIV-1) [6]): 0.54 µg/mL

B13: VRC27 heavy chain with N6 light chain (antibody, V domains shown)
VH: QRLVQSGPQVRKPGSSVRISCETSGYTFNAYILHWFRQAPGRSFEWMGWIKPKFGAVNYAHSFQGRITLTRDIYRETAFLDLTGLRFDDTAVYYCARDRLYDGSSWRLDPWGQGTRVVVSS
VL: YIHVTQSPSSLSVSIGDRVTINCQTSQGVGSDLHWYQHKPGRAPKLLIHHTSSVEDGVPSRFSGSGFHTSFNLTISDLQADDIATYYCQVLQFFGRGSRLHIK
neutralisation fold change (IC50 original/IC50 combination) (VRC01-resistant viruses [11]): 1 fold
neutralisation median IC50 (VRC01-resistant viruses [11]): > 50 µg/mL
neutralisation IC50 (T250-4 (HIV-1) [12]): 23.1 µg/mL
neutralisation IC50 [13]: > 50 µg/mL
neutralisation IC50 (6631.V3.C10 (HIV-1) [14]): > 50 µg/mL

Reference: patent US20180298083A1
